Changes are numbered by the printed parent chain.
B1: anti-FOLR1 heavy chain antibody (HCAb, UniAb) clone ID 358598 (antibody, V domains shown)
VH: EVQLVESGGGLVQPGGSLRLSCAASGFSFSSYSMNWVRQAPGKGLEWVSYITSSSDTIEYADSVKGRFTISRDNAKNSLYLQMNSLRDEDTAVYYCASVGLDFDYRGQGTLVTVSS
notes: Heavy chain-only antibody (no light chain), F18 family
B2: anti-FOLR1 heavy chain antibody (HCAb, UniAb) clone ID 358614 (antibody, V domains shown)
VH: B1 VH with N35K, T52S, S53R
notes: as for B1
B3: anti-FOLR1 heavy chain antibody (HCAb, UniAb) clone ID 358589 (antibody, V domains shown)
VH: EVQLVESGGGLVQPGGSLRLSCAASGFSFSSYSMKWVRQAPGKGLEWVSYISSSSDTIEYADSVKGRFTISRDNAKNSLYLMNSLRDEDTAVYYCASVGLDFDYRGQGTLVTVSS
notes: as for B1
B4: anti-FOLR1 heavy chain antibody (HCAb, UniAb) clone ID 358454 (antibody, V domains shown)
VH: EVQLVESGGGLVQPGGSLRLSCAASGFTFSSYSMNWVRQAPGKGLEWVSSISSGSSYIYYADSVKGRFTISRDNAKNSLYLQMNSLRAEDTAVYFCARDVTSGIAAAGSAFNIRGQGTLVTVSS
notes: Heavy chain-only antibody (no light chain), F14 family
B5: anti-FOLR1 heavy chain antibody (HCAb, UniAb) clone ID 358457 (antibody, V domains shown)
VH: B4 VH with A88D, F95Y
notes: as for B4
B6: anti-FOLR1 heavy chain antibody (HCAb, UniAb) clone ID 358474 (antibody, V domains shown)
VH: B4 VH with Q13K, V93I, F95Y
notes: as for B4

Experiments:
[1] = molecular target: human Folate Receptor Alpha (FOLR1) on cells (human) (UniProt P15328); assay: saturation binding on IGROV-1 cells, bound against free antibody (Scatchard analysis per paragraph 239)
Chain of human Folate Receptor Alpha (FOLR1) on cells (human) (P15328 25-234): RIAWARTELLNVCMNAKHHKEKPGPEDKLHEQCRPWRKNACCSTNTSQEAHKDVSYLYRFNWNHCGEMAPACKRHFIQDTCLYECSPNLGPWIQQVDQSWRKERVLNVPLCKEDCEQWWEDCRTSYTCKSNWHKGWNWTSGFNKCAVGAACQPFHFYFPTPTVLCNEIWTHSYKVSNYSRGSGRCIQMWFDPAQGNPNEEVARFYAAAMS

[2] = molecular target: human Folate Receptor Alpha (FOLR1) on cells (human) (UniProt P15328); assay: cell-based or functional assay
[3] = molecular target: T1, human Folate Receptor Alpha (FOLR1) on cells (human, UniProt P15328 25-234); assay: cell binding, OVCAR-3 cells
T1 construct: whole, on cells; Endogenous on IGROV-1, OVCAR-3, SKOV-3, HT-29 cells; transfected on CHO cells; the cell is named under assay; also called FRα; FRa
T1 sequence (P15328 25-234): as above

cyno FOLR1 on CHO cells [4] = molecular target: T2, cyno FOLR1 on CHO cells (cyno (Cynomolgus macaque), UniProt A0A2K5U044 25-234); assay: flow cytometry, CHO cells stably expressing cyno FOLR1
T2 construct: whole, on cells; also called cyFOLR1
T2 sequence (A0A2K5U044 entry or part of it): as the sequence (P15328 25-234) above, with I2T, W4R, R37K, A146P, H171Y counted along it

recombinant human FOLR1 = recombinant human FOLR1 (human, UniProt P15328 25-234); assay: BLI, Octet QK-384, recombinant human FOLR1
Chain of recombinant human FOLR1 (P15328 25-234 limits assumed): as the sequence (P15328 25-234) above
Protocol: As used herein, the “Kd” or “Kd value” refers to a dissociation constant determined by BioLayer Interferometry, using an Octet QK384 instrument (Fortebio Inc., Menlo Park, CA) in kinetics mode. For example, anti-mouse Fc sensors are loaded with mouse-Fc fused antigen and then dipped into antibody-containing wells to measure concentration dependent association rates (kon). Antibody dissociation rates (koff) are measured in the final step, where the sensors are dipped into wells containing buffer only. The Kd is the ratio of koff/kon. (For further details see, Concepcion, J, et al., Comb Chem High Throughput Screen, 12 (8), 791-800, 2009).
Table 17 summarizes affinity and epitope bin information for anti-FOLR1 heavy chain antibodies (HCAbs). Column 1 indicates the clone ID of the HCAb. Column 2 indicates the affinity of the HCAb to recombinant human FOLR1 as measured by Bio-layer interferometry (BLI) using an Octet QK-384. Column 3 indicates the epitope bin of HCAb as determined by a competition BLI binding experiment using an Octet QK-384.

mouse FOLR1 on CHO cells [5] = molecular target: T3, mouse FOLR1 on CHO cells (mouse, UniProt P35846 25-232); assay: flow cytometry on CHO cells stably expressing mouse FOLR1, MFI fold over background
T3 construct: whole, on cells; also called msFOLR1
T3 sequence (P35846 25-232): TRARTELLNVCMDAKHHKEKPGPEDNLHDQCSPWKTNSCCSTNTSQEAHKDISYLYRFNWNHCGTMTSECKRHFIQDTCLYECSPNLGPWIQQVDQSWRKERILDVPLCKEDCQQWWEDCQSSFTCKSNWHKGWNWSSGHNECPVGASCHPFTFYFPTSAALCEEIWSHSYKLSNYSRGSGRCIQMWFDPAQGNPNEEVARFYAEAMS
Protocol: IGROV-1 cells, OVCAR-3 cells, CHO cells stably expressing human FOLR1, CHO cells stably expressing cyno FOLR1, and CHO cells stably expressing mouse FOLR1 were incubated with increasing amounts of the indicated antibodies, and binding characteristics were analyzed. Data are presented in FIG. 1, panels A-E, as MFI fold over background.

cyno FOLR1 on CHO cells [6] = molecular target: T2, cyno FOLR1 on CHO cells; assay: cell binding, CHO cells stably expressing cyno FOLR1
[7] = molecular target: T1, human Folate Receptor Alpha (FOLR1) on …; assay: cell binding, IGROV-1 cells
[8] = molecular target: T1, human Folate Receptor Alpha (FOLR1) on …; assay: cell binding, CHO cells stably expressing human FOLR1
[9] = molecular target: T1, human Folate Receptor Alpha (FOLR1) on …; assay: flow cytometry, CHO cells stably expressing human FOLR1
[10] = molecular target: T4, FOLR3 (folate receptor gamma) (UniProt P41439 23-245, limits assumed); assay: BLI (Octet)
T4 construct: also called FRγ
T4 sequence (P41439 23-245 limits assumed): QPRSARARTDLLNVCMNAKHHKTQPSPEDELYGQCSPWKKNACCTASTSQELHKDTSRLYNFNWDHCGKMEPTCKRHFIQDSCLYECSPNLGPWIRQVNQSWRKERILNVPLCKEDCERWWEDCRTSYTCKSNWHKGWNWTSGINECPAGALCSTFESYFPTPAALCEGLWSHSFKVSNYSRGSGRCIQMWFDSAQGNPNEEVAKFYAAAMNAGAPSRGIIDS

mouse FOLR1 on CHO cells [11] = molecular target: T3, mouse FOLR1 on CHO cells; assay: cell binding, CHO cells stably expressing mouse FOLR1

Molecule	EC50 (read off the curve) [1] [nM]	EC50 of ex vivo tumor cell lysis (dissociated ovarian tumor sample) [2] [pM]	maximum tumor cell lysis (IGROV-1 cells with human pan T-cells, 48 hours) [2] [%]	EC50 [3] [nM]	fold over background MFI (cyno FOLR1 on CHO cells [4]) [fold over background]	Kd (recombinant human FOLR1) [nM]	binding result (mouse FOLR1 on CHO cells [5])	EC50 (cyno FOLR1 on CHO cells [6]) [nM]	EC50 [7] [nM]	EC50 [8] [nM]	fold over background MFI [9] [fold over background]	binding result [10]	EC50 (mouse FOLR1 on CHO cells [11]) [nM]
TNB-928B, fully human bispecific antibody that binds to FOLR1 (FRα) and CD3	6	45.2	75	–	–	–	–	–	–	–	–	–	–
B1	–	–	–	0.6	1010	22.7	no binding (tested: 100 nM (log[nM] 2))	2.4	2.6	1.9	1890	no binding	–
B2	–	–	–	0.7	735	26.8	no binding (tested: 100 nM (log[nM] 2))	2.7	2.1	1.9	886	no binding	–
B3	–	–	–	0.9	996	22.3	no binding (tested: 100 nM (log[nM] 2))	1.9	3.7	3.3	1580	–	–
B4	–	–	–	1.5	1520	6.78	–	3.4	3.3	4.2	1230	no binding	3.2
B5	–	–	–	1.1	2520	6.82	–	3	3.6	4.6	2080	–	2.5
B6	–	–	–	1.2	2350	7.62	–	4.3	4	4	2240	no binding	2.6

— patent publication US20240002498A1 (TENEOBIO, published 2024)
